Experiments:
[1] = biological target: a site on the cancer and normal cell surface (human); test: whole-cell binding assay on UISO-Mel-2 cells with 125I azurin, Scatchard analysis
[2] = biological target: a site on the cancer and normal cell surface (human); test: whole-cell binding assay on UISO-Mel-2 cells, 125I azurin with or without unlabeled competitor, Scatchard analysis

Row | Substance | Bmax [1] [pm] | Kd [1] [nM] | Bmax [2]
1 | azurin from Pseudomonas aeruginosa (wt-azurin) | 0.48 | 10 | –
2 | p18, Leu50-Gly67 of Pseudomonas aeruginosa azurin (peptide) | – | – | 0.51 pm
3 | p28, Leu50-Asp77 of Pseudomonas aeruginosa azurin (peptide) | – | – | 3

From patent US20090286719A1
